According to the PETadex activity labels (doi:10.1016/s0021-9258(19)85305-x):
Positions count from the first letter of the chain named.

B1: unnamed (protein)
chain: MRPPQCLLHTPSLASPLLLLLLWLLGGGVGAEGREDAELLVTVRGGRLRGIRLKTPGGPVSAFLGIPFAEPPMGPRRFLPPEPKQPWSGVVDATTFQSVCYQYVDTLYPGFEGTEMANPNRELSEDCLYLNVWTPYPRPTSPTPVLVWIYGGGFYSGASSLDVYDGRFLVQAERTVLVSMNYRVGAFGFLALPGSREAPGNVGLLDQRLALQWVQENVAAFGGDPTSVTLFGESAGAASVGMHLLSPPSRGLFHRAVLQSGAPNGPWATVGMGEARRRATQLAHLVGCPPGGTGGNDTELVACLRTRPAQVLVNHEWHVLPQESVFRFSFVPVVDGDFLSDTPEALINAGDFHGLQVLVGVVKDEGSYFLVYGAPGFSKDNESLISRAEFLAGVRVGVPQVSDLAAEAVVLHYTDWLHPEDPARLREALSDVVGDHNVVCPVAQLAGRLAAQGARVYAYVFEHRASTLSWPLWMGVPHGYEIEFIFGIPLDPSRNYTAEEKIFAQRLMRYWANFARTGDPNEPRDPKAPQWPPYTAGAQQYVSLDLRPLEVRRGLRAQACAFWNRFLPKLLSATDTLDEAERQWKAEFHRWSSYMVHWKNQFDHYSKQDRCSDL
B2: unnamed (protein)
chain: B1 chain with A117W, F369A
B3: unnamed (protein)
chain: B1 chain with A117W, W317A
B4: unnamed (protein)
chain: B1 chain with A117W
B5: unnamed (protein)
chain: B1 chain with A117W, Y368F

Substrate: p-NP-C2
Settings: pH 8; 27 °C

Point of comparison: B2, Km 8.6 mM. Against it:
- B1 — 2.9-fold lower, 3 mM
- B3 — 1.9-fold lower, 4.6 mM
- B4 — 1.5-fold lower, 5.6 mM
- B5 — 1.6-fold lower, 5.4 mM

Point of comparison: B5, kcat 1600 s⁻¹. Against it:
- B1 — 2-fold higher, 3170 s⁻¹
- B2 — 4.8-fold lower, 333 s⁻¹
- B3 — within 1.5-fold, 2170 s⁻¹
- B4 — within 1.5-fold, 1830 s⁻¹

Point of comparison: B3, kcat/Km 471000 s⁻¹ M⁻¹. Against it:
- B1 — higher, 1.06e+06 s⁻¹ M⁻¹
- B2 — lower, 38800 s⁻¹ M⁻¹
- B4 — lower, 327000 s⁻¹ M⁻¹
- B5 — lower, 296000 s⁻¹ M⁻¹
